Reference: patent US20140377324A1, “Pharmaceutical Composition Comprising miRNA-100 And Its Use In The Modulation of Blood Vessel Growth and Endothelial Inflammation” (Universitatsklinikum Freiburg, priority 2009, published 2014)

Columns and labels:
HEK293 cells = experiment: HEK cell proliferation, rescue-experiment with mTOR plasmids; assay type: cell-based, human; settings: 8nM oligonucleotide; FIG. 7
Experimental: To investigate if the repression of mTOR was responsible for the observed attenuation of cellular proliferation by miR-100, a rescue-experiment was performed by transfecting mTOR-coding plasmids in combination with pre-miR-100.
(§1) For transfection with pre-miR microRNA precursor molecules or anti-miRmiRNA inhibitors (all Ambion), cells were cultured to 70% confluence and transfected with 8nM pre-miR-100 or anti-miR-100 oligonucleotides using Lipofectamin RNAiMax (invitrogen) according to the manufacturers instructions. For transfection of HEK293 cells with mTOR plasmids, 2 μg DNA per 3×10E5 cells was transfected with Fugene 6 transfection reagent (Roche). For double transfection of plasmids with miRNA-precursors and inhibitors, pre- and anti-miRs were added to the plasmid/Fugene transfection mix in the same final concentrations as stated above. mTOR (Acc. NM004958) full length (SKU SC124066) and ORF-constructs (SKU RC220457) were obtained from the Origene collection (Origene, Rockville, Md.).
Due to the large plasmid size of mTOR, it was not possible to achieve a sufficient transfection rate in endothelial cells without procedure-related toxic effects and therefore the easily transfected HEK-cells were chosen as a culture model, where the miR-100 effects on proliferation seen in endothelial cells could be reproduced (FIG. 7).

E-Selectin [1] = experiment: E-Selectin mRNA expression in endothelial cells (Taqman PCR); assay type: cell-based, human; settings: vs scrambled premiR control; FIG. 13
Experimental: (§2) Human endothelial cells were transfected with premiR-100 and scrambled premiR control oligonucleotides. After RNA isolation, the relative expression rate of the mRNA of different adhesion molecules was measured using the Stem loop Taqman PCR (P value≦0.005).

[2] = system: cultured cancer cells (oral squamous cell carcinoma); settings: Henson et al. 2009; cited from earlier work
HUVECs / human PBMCs = experiment: Leukocyte-HUVEC interaction under flow conditions (flow chamber); assay type: cell-based; settings: TNF-alpha 30 ng/ml for 24 h, flow 1 dyn/cm^2; FIG. 15
Experimental: HUVECs were grown to confluence, transfected with either anti-miR-100 or pre-Mir-100 oligonucelotides or scrambled controls and stimulated with TNF-alpha 30 ng/ml for 24 h. Human PBMCs (HPBMCs) were obtained from buffy coats of healthy donors by Ficoll-Hypaque density gradient centrifugation. The flow chamber was assembled and placed onto an inverted microscope stage, and freshly isolated HPBMCs (1×10^6/ml) were perfused across the endothelial monolayers. In all experiments, leukocyte interactions were determined over 105 min at 1 dyn/cm^2. Cells interacting on the surface of the endothelium were visualized and recorded using phase-contrast microscopy.
To test if this change in expression results in a functional difference in leukocyte rolling and adhesion to the endothelial surface, the attachment of isolated peripheral blood mononuclear cells (PBMC) to transfected endothelial cells was investigated under physiologic flow conditions in a flow chamber apparatus.
A physiological venous blood flow (1 dynes/cm^2) was induced by a flow chamber apparatus and the number of rolling or adherent peripheral blood mononuclear cells (PBMCs) was counted.

E-Selectin (SELE) = experiment: Agilent microarray after miR-100 overexpression in endothelial cells, E-Selectin; assay type: cell-based, human; settings: 48 hours after transfection vs control oligonucleotide, FIG. 12
Experimental: (§3) After discovering the high baseline expression of miR-100 in endothelial cells and its downregulation in response to vascular injury and ischemia, the function of this microRNA in endothelial cells (EC) was investigated. Therefore, miR-100 was overexpressed in EC by transfecting a synthetic miR-100 precursor molecule (pre-mir) and analysed global mRNA gene expression changes compared to transfection with a control oligonucleotide at 48 hours after transfection on a human Agilent 4×44 k microarray platform.
(§4) Microarray results were analysed both on individual gene level as well as by biological pathway analysis using the “Panther Pathways Analysis” Tool that tests changes in gene expression for enrichment of specific biological pathways or cellular functions.
(§5) Endothelial cells were transfected with miR-100 precursor oligonucleotides. Total RNA was isolated after 48 h for microarray analysis of global gene expression.

ICAM-1 [3] = experiment: ICAM-1 protein expression in endothelial cells (Western blot); assay type: cell-based, human
Experimental: (§6) MiRNA-100 was overexpressed in human endothelial cells followed by protein isolation. Using Western blots, the protein expression of VCAM-1, ICAM-1 and E-Selectin was determined. FIGS. 14A and B show the ratio between volume intensity of the protein-samples and the loading control (β-tubulin) for [A] the baseline expression and [B] the expression after 24 h TNF-α stimulation.

endothelial cells [4] = experiment: three-dimensional spheroid culture assay, endothelial sprouting; assay type: cell-based, human
E-Selectin [5] = experiment: E-Selectin protein expression in endothelial cells (Western blot); assay type: cell-based, human
Experimental: as §6

endothelial cells [6] = experiment: BrdU-Incorporation (proliferation), endothelial cells; assay type: cell-based, human; settings: FIG. 3
Excerpt: (§7) To assess whether the observed differences were secondary to effects on cellular viability, endothelial cell apoptosis and proliferation following miR-100 modulation was checked. […] DNA-synthesis rate was further analyzed by measuring BrdU-Incorporation, which correlates well with cellular proliferation.

endothelial cells [7] = experiment: flow cytometric quantification of Annexin V-staining (apoptosis); assay type: cell-based, human; settings: compared to irrelevant control sequence, FIG. 3
Excerpt: as §7

VCAM-1 [8] = experiment: VCAM-1 protein expression in endothelial cells (Western blot); assay type: cell-based, human
Experimental: as §6

miR-100 = miR-100 level by quantitative stem-loop RT-PCR after pre-miR/anti-miR transfection; assay type: cell-based, human; settings: 24 h following transfection; vs irrelevant-sequence controls; FIG. 2
Excerpt: To verify the expression of miR-100 in pure cell populations of the vascular wall, stem-loop RT-PCR was used for total RNA-isolates from cultured human endothelial cells (HUVECs) and human aortic vascular smooth muscle cells.
MicoRNA expression was validated by quantitative stem-loop PCR technology (TaqMan MicroRNA Assays, Applied Biosystems, Foster City, Calif.). The use of target-specific reverse transcription primers and TaqMan hybridization probes allows the specific detection of mature microRNAs. MicroRNA expression was normalized to the expression of the small RNAs rnu19 and rnu48.
miR-100 was strongly expressed in both cell types. To investigate a potential role of miR-100 for angiogenesis, miR-100 was overexpressed and silenced in these cell types by transfecting specific miR-100 precursors (pre-miRs) or antisense-molecules (anti-miRs), respectively. […] Pre- and anti-miRs with an irrelevant nucleotide sequence served as negative controls. There was no significant difference in cellular viability following transfection with the different compounds.
For transfection with pre-miR microRNA precursor molecules or anti-miRmiRNA inhibitors (all Ambion), cells were cultured to 70% confluence and transfected with 8nM pre-miR-100 or anti-miR-100 oligonucleotides using Lipofectamin RNAiMax (invitrogen) according to the manufacturers instructions. […]

ICAM-1 [9] = experiment: ICAM-1 mRNA expression in endothelial cells (Taqman PCR); assay type: cell-based, human; settings: vs scrambled premiR control; FIG. 13
Experimental: as §2

VCAM-1 [10] = experiment: Agilent microarray after miR-100 overexpression in endothelial cells, VCAM-1; assay type: cell-based, human; settings: 48 hours after transfection vs control oligonucleotide, FIG. 12
Experimental: as §3, §4, §5

mTOR (FRAP1-gene) = experiment: microarray based gene expression analysis of endothelial cells following miR-100 overexpression (mTOR); assay type: cell-based, human
Excerpt: Using a combination of bioinformatic prediction algorithms and microarray based gene expression analysis of endothelial cells following miR-100 overexpression, it was searched for potential target genes of miR-100 that could be responsible for the observed effects.

mTOR = mTOR expression in endothelial cells after miR-100 modulation; assay type: cell-based, human; settings: FIG. 5
Experimental: The binding site of miR-100 in the 3′-UTR of mTOR is shown in (FIG. 6.) In FIG. 6 the sequence designated hsa-miR-100 corresponds to SEQ ID NO:1 and the sequence having the designation mTOR 3′UTR corresponds to SEQ ID NO:7.
as §1

endothelial cells [11] = experiment: planar matrigel assay, endothelial network formation; assay type: cell-based, human
VCAM-1 [12] = experiment: VCAM-1 mRNA expression in endothelial cells (Taqman PCR); assay type: cell-based, human; settings: vs scrambled premiR control; FIG. 13
Experimental: as §2

[13] = system: vascular smooth muscle cells; experiment: BrdU-Incorporation (proliferation), smooth muscle cells; assay type: cell-based, human; settings: FIG. 4
[14] = after 24 h TNF-α stimulation, FIG. 14B

B1: pre-miR-100: synthetic miR-100 precursor molecule, SEQ ID No. 8, used to overexpress miR-100; processed to mature miRNA-100 (SEQ ID No: 9) (nucleic acid)
chain: CCUGUUGCCACAAACCCGUAGAUCCGAACUUGUGGUAUUAGUCCGCACAAGCUUGUAUCUAUAGGUAUGUGUCUGUUAGG
modifications: listed as RNA, chemistry not given here
HEK293 cells
  cell proliferation of HEK cells: anti-proliferative effect
E-Selectin [1]
  E-Selectin mRNA relative expression: decrease
[2]
  cell proliferation: significantly reduced cell proliferation
HUVECs / human PBMCs
  leukocyte (PBMC) adhesion to transfected endothelial cells: significantly attenuates leukocyte adhesion
E-Selectin (SELE)
  E-Selectin (SELE) gene expression: strong downregulation
ICAM-1 [3]; [14]
  ICAM-1 protein, upregulation after TNF-α stimulation: blunts the upregulation in response to inflammatory stimuli
ICAM-1 [3]; ratio to β-tubulin, FIG. 14A
  ICAM-1 protein, baseline expression: decreases baseline expression
Endothelial cells [4]
  endothelial sprouting (total sprout length): significant inhibitory effect
E-Selectin [5]; [14]
  E-Selectin protein, upregulation after TNF-α stimulation: blunts the upregulation in response to inflammatory stimuli
E-Selectin [5]; ratio to β-tubulin
  E-Selectin protein, baseline expression: decreases baseline expression
Endothelial cells [6]
  endothelial cell proliferation (DNA-synthesis rate): significant attenuation of endothelial cell proliferation
Endothelial cells [7]
  endothelial cell apoptosis: slight increase in endothelial cell apoptosis
VCAM-1 [8]; [14]
  VCAM-1 protein, upregulation after TNF-α stimulation: blunts the upregulation in response to inflammatory stimuli
VCAM-1 [8]; ratio to β-tubulin, FIG. 14A
  VCAM-1 protein, baseline expression: decreases baseline expression
miR-100
  detectable miR-100 (relative miR-100 expression): strong increase in detectable miR-100
ICAM-1 [9]
  ICAM-1 mRNA relative expression: decrease
VCAM-1 [10]
  VCAM-1 gene expression: strong downregulation
mTOR (FRAP1-gene)
  mTOR (FRAP1) gene expression: downregulated
mTOR
  mTOR-expression on both mRNA as well as protein level: significantly repressed
Endothelial cells [11]
  endothelial network formation: significant inhibitory effect
VCAM-1 [12]
  VCAM-1 mRNA relative expression: decrease
[13]
  inhibitory effect on proliferation, smooth muscle cells compared with endothelial cells: more pronounced in endothelial cells than in smooth muscle cells
